Results as given in the DeepSol protein solubility set.

Experiment: soluble on expression in E. coli; label from the status in PepcDB or PDB records

Row | Sequence | soluble on expression in E. coli
1 | MGSDKIHHHHHHMSDLDRATLLDATGVAKSFGAVRALTDASLHVGAGEVVALMGANGAGKSTFVKILTGALRPDAGRVLIRGEVARTGSPAQARRSGLVPVYQEPSLIPDLDVADNLRLGDTPSDAVLHWMNELGINGLRFDDMISDLPLATLRILDLARALASQPDVLLLDEMTAALPTNLVENVLRVVRAQADAGCGVIYISHRFTEIAELCDSATILRDGRTVGDLQIEPGVENRCVELMLGAKLSLDKRDAGALRQNTGVPRLRASQIAVAPTVSDVSFDLYPGEVLGVVALEGQGQDEVFNVLSGHQKPTGGALQVDGTSVSFSHPADAIAAGLSYVPGDRAEALLRERSVRENIALPFSARLRDWGPLKTRHERHRVDHAIEKLQIDTRAQGEVQRLSGGNQQKVTIGRWLAHGVRTLLLFDPTRGIDVRTKRQIYPLVRELAEQGAAVLFYTSELDEIPLACDRAIVIFNGRVVNVVNAADATEEVLMRAAYGLTDVSAAS | not soluble
2 | MGSDKIHHHHHHMSNTLLFRPNEARALSALFRTGGLTRASLARELDLTRSTTGTLVQNLVDAGLARERESTTGNEAEPKVGRPGIVVEIAGSGVFFLGAYIGVNRIDVIAIDLSGTVRAKATRPFSGAASRPAQAMELIVALVDEVRRTLPPGARPHGLNVALPGFLDGDGETFHAAILGWHGVSLAQPISESIDLDVPVLLENDANAVAVAETYRSAPPDGKGDDSLVVLIENGVGGGIVSNGKLHRGQLGGAGEIGHMPIGEAGFVYDAVRPGRWETFIGKDALLARYAHISGVIGSLDAFIAVLASGDPTALACARDWARWLVRGLATLACVLQPGRIILAGSVSAIYPFVAEQTEALLAASLIEGYPTPRVETSSTGNDGPALGAAYLLHQAMLAGNTRPHMRDVAVL | not soluble
3 | MGSSHHHHHHSSGENLYFQGHMDVLASGEKSRMLFERTKELFPGGVNSPVRAAVKPYPFYVKRGEGAYLYTVDGARIVDLVLAYGPLILGHKHPRVLEAVEEALARGWLYGAPGEAEVLLAEKILGYVKRGGMIRFVNSGTEATMTAIRLARGYTGRDLILKFDGCYHGSHDAVLVAAGSAAAHYGVPTSAGVPEAVARLTLVTPYNDVEALERVFAEYGDRIAGVIVEPVIANAGVIPPRREFLAALQRLSRESGALLILDEVVTGFRLGLEGAQGYFNIEGDIIVLGKIIGGGFPVGAVAGSREVMSLLTPQGKVFNAGTFNAHPITMAAGLATLKALEEEPVYSVSREAAKALEEAASEVLDRTGLPYTINRVESMMQLFIGVEEVSNAAQARKADKKFYVKLHEEMLRRGVFIAPSNLEAVFTGLPHQGEALEIAVEGLRSSLKTVLGS | soluble
4 | GPGSMIGAPWPPEAVFGNTVDRVASPAPVPERKISIADQLHLPLSRFVEKMSWGEKRRVQILHGMLYPATVYLLDECSTDIDVAERRTVLELVRQECEAKDGCCVYATHIFDGIEGWATHLLLMEGGRVVDFKAVEKLTLPLEDYALQFMSKRAHAARGVDGVAAASLSHGSSAAISTTSPACPTTAAAACPTSATTDAPVTYWPRGHADEKRSEIVINCAQLNYKDVFKNLSFQVFRGERVLLCGGNGTGKSTLLNMLGGKQFFDNRQGSLSVLGKRCYDDMLLNALVSYGGDWWTAVPGGEVHVREMLQLRTSRAERLCEMLAVDMDWDVRHISAGEQKRVQLLLHLLDDKPVVLLDEATTDLDVYQRHSLLQFLYEESVQRGVTVVYSTHIFGGVEGWANVVVLLDRTVRGVHAVWRASEGQPIVLQRVVDAIVSLKAREVF | not soluble
5 | GFGCPGNQLKCNNHCKSISCRAGYCDAATLWLRCTCTDCNGKK | soluble
6 | MAIRSSVLALCVATLLTGCQNLNTNTLMQSGAQAFQAATLSDAQVKALSDQSCEQMDKEAKIAPADSKYTQRLNKIADALGHDINGTPANYKVYLEKDVNAWAMANGCIRVYSGLMDMMNDNEVEGVLGHEMGHVALGHTRKAMQVAYAATAARTAIASAGGVAASLSQSQLADLGEKLVNSQFSQSQESQADDYSFDLLKKRGINREGLASSFEKLAKLDASHESSMFDSHPSSEGRAKHIRERITAEKLEHHHHHH | soluble
7 | MTKIMIIGANGGIAKKLTQRLLAETDDELVLFLRRAERLAQYREQPRVTLIDGNVLDTDELATAMAPVDIVYSNVGGTDLAAQTKSILAAMARTQRQRLIFISALGAHHEVPGKFGAWNEQAIADFLPGFREAARLLSASELVYTEIRPAWLTDVAEIDYELTTGAEPFKGTEVSRASVADLVFKLMAHPENYQRVSLGVDEPGTAGDRPSWLLEHHHHHH | not soluble
8 | SRFTISAAKPEDCKDIERMIMELAVYENMPDQVKISHKELERDGFGPNPFYHCLVAEVPEEHKSKDGNTTVGYVIFFYTYSTWKGRTVYMEDLYVMPEFRGNGIGKALLGAVAKEAKDQLCSRLQFSVLDWNKPSLDFYMAKGAEDLTAKEGWHFLRFHGMALDNLAQEAP | soluble
9 | MSLEKVIPVKKNNDYEIYIDDFGNMGEGIGKIDNFTVFVKDAVKGEKVRAKIIKVNKSFAIGKLIDIIEKSQDRTEPVCSIYKKCGGCQLQHLKYTEQLEFKKNKVVECLKRIGKLDLSSVRINETIGMEDPYFYRNKVQLPVGETAGEAKIGFYRERSHEIIEVDKCFIQDDSANEIILLIKRWIKEFNIEGYNEYSGKGTLRHIMIRKAFKTGQIMLVLVTNTENVPHKKELIHMITTEIQGIKGIIQNINNKKTNVILGQREITLWGESTIEDYIGEFKFNISSKSFFQVNPIQTEKLYSAALKYAGLTGKEVVFDAYCGTGTISLFLSQNAKKVYGVEIIPEAIENAKINAKQNGIENTEFIVGKSEEEIPKLIEKGIAPEVVVVDPPRKGCEKSLLHSIAEASPKTIVYVSCDPATLSRDLGILSELGYEVNEVQPVDMFPMTGHVETIVLIKRVDKEGHHHHHH | soluble
10 | MTESDDHKLVLAISSRALFDLRDSHAVYMAEGVEAYRKYQIEHEDEILERGDAFTLVEKLLNLNASLSKARVEVVLVSRNSADTGLRVFNSIQHYGLDIARAAFAGGRSPYPYLAAFGCHLFLSTHAEDVRSALDAGFAAATILSGGARRAASAELRIAFDGDAVLFSDESERVYQSGGLAAFQASERESAREPLRGGPFKPFLAALNQLQREFPDASCPIRTALVTARSAPAHERVIRTLREWDIRLDESLFLGGLQKSAFLEAFAADVFFDDQPGHCEKAREVVATGHVPHGISNEIIPFDGGGAAALEHHHHHH | not soluble
11 | MGSDKIHHHHHHMQYREFGRTGVKTSLLGFGAMRLPVIGEDHSNIDEEKAIEMIRYAIDHGVNYVDTAYPYHGGNSEKVVGKALKDGYREKVFLATKSPVWQVEKHEDFERILDEQLEKLQTDHVDMYLMHALNKERWEKIKNLRFSDFFEKAKAKGKIRFAGFSFHDSYPVFKEIVDGYDWDFCQIQLNYMDVNYQAGLRGLKYAGSKGLAVVIMEPLKGGKLARLPEKVMEILRKYNKNWSPVELSFRWIGHHPEVSTILSGMSTLEQVKQNIDIMSKITPGNLTDEDMKMIEEIRKTLESFAVINCTQCGYCMPCPNGVDIPGNFRLYNETVMFEDWEGGRRTYKWLESQKSAASFCVECGECLSKCPQKLDIPNLLKKVHRELAEVK | not soluble
12 | MASVHGTTYELLRRQGIDTVFGNPGSNELPFLKDFPEDFRYILALQEACVVGIADGYAQASRKPAFINLHSAAGTGNAMGALSNAWNSHSPLIVTAGQQTRAMIGVEALLTNVDAANLPRPLVKWSYEPASAAEVPHAMSRAIHMASMAPQGPVYLSVPYDDWDKDADPQSHHLFDRHVSSSVRLNDQDLDILVKALNSASNPAIVLGPDVDAANANADCVMLAERLKAPVWVAPSAPRCPFPTRHPCFRGLMPAGIAAISQLLEGHDVVLVIGAPVFRYHQYDPGQYLKPGTRLISVTCDPLEAARAPMGDAIVADIGAMASALANLVEESSRQLPTAAPEPAKVDQDAGRLHPETVFDTLNDMAPENAIYLNESTSTTAQMWQRLNMRNPGSYYFCAAGGLGFALPAAIGVQLAEPERQVIAVIGDGSANYSISALWTAAQYNIPTIFVIMNNGTYGALRWFAGVLEAENVPGLDVPGIDFRALAKGYGVQALKADNLEQLKGSLQEALSAKGPVLIEVSTVSPVKHHHHHH | soluble
13 | MSLTASAPRRPAAFLDRDGVINYNDHYVGTRERLRWMPGIAAAIRQLNAAGYYVFIITNQSGVARGMFSEDDVRALHRWMLDELNTQGARIDDVRFCPHHVEGTLDAYRVACEHRKPGPGMILDLAKTWPVDMTRSFVIGDSASDVEAAKAAGIPGFRFEGEDIDVFVKQVLIEMQRAAVSNEGHHHHHH | soluble
14 | MAFICELDEQWSYVGSKARQHWLGYAYNTKTGGVLAYTFGPRTDQTCRELLALLTPFNIGMLTSDDWGSYGREVPKNKHLTGKIFTQRIERNNLTLRTRIKRLGRKTICFSRSVEIHEKVIGAFIEKHMFY | not soluble
15 | MRAHEIEYKLYGDDMQFVEIELDPEESVIAEAGAMMMMEDYIEMETIFGDGSGPSGGLFGKLMGAGKRLVTGESMFMTVFTNTGHGKRHVSFAAPYPGKIIPVDLTEYQGKVVCQKDAFLCAAKGVSLGIEFTKKIGTGFFGGEGFIMQKLEGDGLAFMHAGGTVYKRELKPGEKLRIDTGCLVAMTKDINYDVEFVGKVKTALFGGEGLFFATLEGPGTVWIQSLTLSRLAARLTSPAAQSTGEGSVLGGLGRLLDGKE | not soluble
16 | MGSDKIHHHHHHMKYLKQYMIIGAVTMITSCSDFLDTAPLDALSPATTWKTEDDAQKFAIGCYGGNNYDTSSWEDGGNILYLDCGSDFGYNNFEWENYKTIGNGTMTPSGAVASFYDFSVIRRCNTFLEKVKEIPFSNEQTKNDLIGQVRTIRAYRYFVMNWWYGGVPVIDNYNSADEAKVPRKSEEEVKNYVNTELDTAIGELNASPSERGRIAKGAAMAIRMRSALYYGDYVKAKEMAEAIMNLKQYDLEPDYSNLFKVAGQDSKEIILAVQYVNSTLELGTIGQMYNNGDGGWSSIVPTQNLVDTYEMADGLTKEESGSYDPNHPFAGRDPRMAMTIIYPGMDWNGTVVNTLDKTINGKDNANYPPSANNASKTALTWRKYLDEQYANGIWNTNACPIVIRYAEVLLTYAEAVNELSGPSADVYDKLDLIRGRVGMPKVDREKYASKETLRRLIRRERGVELAGEGVRRADILRWKDDNGKMVAETVLNGVLERVVGTVNYAETDPTKRAEIDTNAPATDKKIEDRVFKVHNRYNPIPQGAIDNNPNLEQNPGY | not soluble
17 | MQDLEAELERARELDVATLADAIETIGFECTRCGACCKSEADDPHTATVFPDEVRDVQAAAGAETDRDWRDVARPMPYGLDEDGAGETFEWALQADSCGDCTFYREDDDGTGACSVHGSRPLICQTYPFSVALGGTSQPMGEAVDEAGMVRAHECEGLGRDISRADAEELAGALKARAIRELEEAIDVREAYAPANPEPGATVVHDSEGAKRPDGSAYPNAAALEHHHHHH | not soluble
18 | MGSDKIHHHHHHMRFGLDLGTTRTIAAAVDRGNYPIVTVEDSLGDTHDFIPSVVALKADRIVAGWDAIEVGQDHPSFVRSFKRLLSEPNVTEATPVYLGDHVHPLGAVLEAFAENVVTALRAFQTQLGDTSPIEVVIGVPANSHSAQRLLTMSAFSATGITVVGLVNEPSAAAFEYTHRHARTLNSKRQAIVVYDLGGGTFDSSLIRIDGTHHEVVSSIGISRLGGDDFDEILLQCALKAAGRQHDAFGKRAKNTLLDESRNAKEALVPQSRRLVLEIGDDDITVPVNKFYEAATPLVEKSLSIMEPLIGVDDLKDSDIAGIYLVGGGSSLPLVSRLLRERFGRRVHRSPFPSGSTAVGLAIAADPSSGFHLRDRVARGIGVFREHDSGRAVSFDPLIAPDTDSATVAKRCYKAVHNIGWFRFVEYSTVSEDGSPGDISLLSEIKIPFDSSITDVDATEISRFDGPEVEETITVNDNGVASISIKILGGVTVEHTI | not soluble
